Experimental data taken from patent publication US20170158755A1 (PROTHENA BIOSCIENCES, published 2017).
Substitutions are numbered along the chain they refer to.

T1: mouse MCAM-Fc fusion protein (mouse; human, UniProt Q8R2Y2 24-563)
T1 construct: extracellular domain; Made in house; also called mMCAM-Fc; 650-conjugated mouse MCAM-Fc; not shown: human IgG1 (Fc part of the fusion)
T1 sequence (looked up): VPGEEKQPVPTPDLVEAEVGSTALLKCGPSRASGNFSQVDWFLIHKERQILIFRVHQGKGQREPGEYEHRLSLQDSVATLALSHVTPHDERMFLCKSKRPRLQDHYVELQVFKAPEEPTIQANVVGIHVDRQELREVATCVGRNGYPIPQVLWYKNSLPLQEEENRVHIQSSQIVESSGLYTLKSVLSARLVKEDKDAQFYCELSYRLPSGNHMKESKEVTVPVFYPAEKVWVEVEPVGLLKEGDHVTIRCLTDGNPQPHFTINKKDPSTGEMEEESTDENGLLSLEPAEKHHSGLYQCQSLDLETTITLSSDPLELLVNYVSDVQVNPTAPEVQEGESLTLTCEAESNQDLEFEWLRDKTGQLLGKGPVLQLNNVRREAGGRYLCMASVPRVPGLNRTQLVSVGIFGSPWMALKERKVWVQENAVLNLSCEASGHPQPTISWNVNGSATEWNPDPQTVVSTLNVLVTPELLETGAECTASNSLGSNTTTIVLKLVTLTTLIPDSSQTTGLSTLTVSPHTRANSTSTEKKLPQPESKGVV

T2: human LAMA4 LG1-3 modules displayed on 293 cells (human, UniProt Q16363 830-1430)
T2 construct: pDisplay construct on 293 cells; vector tags and anchor not written here
T2 sequence: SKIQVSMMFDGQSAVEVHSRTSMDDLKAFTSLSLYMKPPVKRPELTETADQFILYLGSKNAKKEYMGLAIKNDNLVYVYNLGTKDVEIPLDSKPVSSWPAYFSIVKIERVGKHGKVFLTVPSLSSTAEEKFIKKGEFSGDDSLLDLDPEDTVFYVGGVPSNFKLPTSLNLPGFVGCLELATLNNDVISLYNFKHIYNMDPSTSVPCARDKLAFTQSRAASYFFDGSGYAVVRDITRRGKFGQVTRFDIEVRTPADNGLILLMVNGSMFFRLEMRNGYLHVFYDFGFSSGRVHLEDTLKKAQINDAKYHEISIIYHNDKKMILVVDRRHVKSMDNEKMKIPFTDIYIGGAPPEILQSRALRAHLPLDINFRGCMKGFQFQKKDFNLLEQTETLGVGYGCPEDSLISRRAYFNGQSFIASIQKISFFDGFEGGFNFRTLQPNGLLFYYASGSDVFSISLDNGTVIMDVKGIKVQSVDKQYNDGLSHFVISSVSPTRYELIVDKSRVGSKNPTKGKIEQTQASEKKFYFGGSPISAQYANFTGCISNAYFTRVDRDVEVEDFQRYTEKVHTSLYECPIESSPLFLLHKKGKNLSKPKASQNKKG

T3: human LAMA4 G domain (LG1-5) displayed on 293 cells (human, UniProt Q16363 830-1821)
T3 construct: the vector's tags and membrane anchor are not written here; also called LAMA4-displaying human 293 cells; full length
T3 sequence: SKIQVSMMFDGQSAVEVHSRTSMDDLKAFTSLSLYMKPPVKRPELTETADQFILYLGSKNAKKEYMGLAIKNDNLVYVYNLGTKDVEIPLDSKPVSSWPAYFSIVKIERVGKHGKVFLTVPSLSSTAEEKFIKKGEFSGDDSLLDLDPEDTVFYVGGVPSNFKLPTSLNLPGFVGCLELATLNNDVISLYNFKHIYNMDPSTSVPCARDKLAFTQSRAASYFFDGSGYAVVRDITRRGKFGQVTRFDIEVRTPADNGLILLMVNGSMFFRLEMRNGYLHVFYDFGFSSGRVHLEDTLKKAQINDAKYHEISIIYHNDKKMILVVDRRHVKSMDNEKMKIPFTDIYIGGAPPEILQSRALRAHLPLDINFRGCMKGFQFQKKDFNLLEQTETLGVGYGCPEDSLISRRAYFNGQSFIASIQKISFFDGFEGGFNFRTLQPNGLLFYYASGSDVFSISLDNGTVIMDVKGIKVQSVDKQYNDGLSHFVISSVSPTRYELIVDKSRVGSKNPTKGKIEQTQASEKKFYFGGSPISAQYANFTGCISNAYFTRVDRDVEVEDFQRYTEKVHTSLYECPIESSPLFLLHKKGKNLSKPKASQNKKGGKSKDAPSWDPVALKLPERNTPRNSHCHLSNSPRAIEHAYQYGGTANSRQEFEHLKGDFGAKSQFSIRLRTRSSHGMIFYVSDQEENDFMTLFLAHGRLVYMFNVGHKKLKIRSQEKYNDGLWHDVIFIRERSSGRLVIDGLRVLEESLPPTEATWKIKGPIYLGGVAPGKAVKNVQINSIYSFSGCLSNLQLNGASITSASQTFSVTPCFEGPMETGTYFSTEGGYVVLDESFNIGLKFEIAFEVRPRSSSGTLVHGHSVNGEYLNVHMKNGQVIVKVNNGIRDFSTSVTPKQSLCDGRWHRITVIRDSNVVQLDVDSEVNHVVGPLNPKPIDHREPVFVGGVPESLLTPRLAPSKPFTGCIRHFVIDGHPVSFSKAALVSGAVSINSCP

B1: human LAMA4 LG4-5 modules displayed on 293 cells (ligand)
chain: RNSHCHLSNSPRAIEHAYQYGGTANSRQEFEHLKGDFGAKSQFSIRLRTRSSHGMIFYVSDQEENDFMTLFLAHGRLVYMFNVGHKKLKIRSQEKYNDGLWHDVIFIRERSSGRLVIDGLRVLEESLPPTEATWKIKGPIYLGGVAPGKAVKNVQINSIYSFSGCLSNLQLNGASITSASQTFSVTPCFEGPMETGTYFSTEGGYVVLDESFNIGLKFEIAFEVRPRSSSGTLVHGHSVNGEYLNVHMKNGQVIVKVNNGIRDFSTSVTPKQSLCDGRWHRITVIRDSNVVQLDVDSEVNHVVGPLNPKPIDHREPVFVGGVPESLLTPRLAPSKPFTGCIRHFVIDGHPVSFSKAALVSGAVSINSCP
notes: pDisplay construct on 293 cells; vector tags and anchor not written here
B2: 19C12 variant H1+ChiL (antibody, V domains shown)
VH: QVQLQQSGAELVKPGASVKISCKASGYAFSTYWMNWVKQAPGEGLEWIGQIYPGDGDTNYNGKFKGRVTLTADKSTSTAYMELSSLRSEDTAVYFCARSDGYYDYWGQGTTVTVSS
VL: NIVLTQSPASLAVSLGQRATISCRASESVDSYGTSFMHWYQQKPGQPPKLLICLASSLESGVPARFSGSGSRTDFTLTIDPVEADDAATYYCQQNNEDPPTFGAGTKLELKR
notes: Humanized heavy chain version 1 (Hu19C12VHv1) paired with the chimeric light chain; Human constant regions not specified
B3: H2L5 (antibody, V domains shown)
VH: B2 VH with I20V, K38R, E43Q, L70I
VL: DIVLTQSPASLAVSLGERATISCRASESVDSYGTSFMHWYQQKPGQPPKLLISLASSLESGVPARFSGSGSGTDFTLTISPLQAEDVATYYCQQNNEDPPTFGQGTKLEIK
notes: also called VHv2/VLv5; humanized 19C12 antibody H2L5; copies: 2 + 2
B4: 19C12 variant H2+ChiL (antibody, V domains shown)
VH: B2 VH with I20V, K38R, E43Q, L70I
VL: B2 VL
notes: Humanized heavy chain version 2 (Hu19C12VHv2) paired with the chimeric light chain; Human constant regions not specified
B5: H3L3 (antibody, V domains shown)
VH: B2 VH with Q1E, I20V, K38R, E43Q, L70I
VL: B3 VL with D1N, S53C, G72R, S80D, L82V, Q83E, V87A, Q104A
notes: also called VHv3/VLv3; humanized 19C12 antibody H3L3; copies: 2 + 2

Tests used:
[1] = target: T1, mouse MCAM-Fc fusion protein; test: flow cytometry on 293 cells displaying LAMA4 G-domain variants; % binding
Source text: LGde1 has a full-length G domain (i.e., LG1-5) with LG1 deleted, LGde2 has a full-length G domain with LG2 deleted, and LGde3 has a full-length G domain with LG3 deleted. Recombinant MCAM-Fc protein was able to specifically bind 293 cells expressing LAMA4 variants LG1-5, LG1-3, and LGde 1 (LG23), but not 293 cells expressing LAMA 4 variants LG4-5, LGde2 (LG13), or LGde3 (LG12).

recombinant laminin 411 [2] = target: T4, recombinant laminin 411 (human, UniProt P07942 22-1786; P11047 34-1609, limits assumed); test: flow cytometric blocking assay; antibody pre-incubated with 650-labeled laminin 411; blocked partner: human MCAM on CHO cells; MFI
T4 construct: also called LAMA4 in complex with its gamma1 and beta1 chains
T4 sequence (chain, as listed by the source limits assumed, chain 1 of 3): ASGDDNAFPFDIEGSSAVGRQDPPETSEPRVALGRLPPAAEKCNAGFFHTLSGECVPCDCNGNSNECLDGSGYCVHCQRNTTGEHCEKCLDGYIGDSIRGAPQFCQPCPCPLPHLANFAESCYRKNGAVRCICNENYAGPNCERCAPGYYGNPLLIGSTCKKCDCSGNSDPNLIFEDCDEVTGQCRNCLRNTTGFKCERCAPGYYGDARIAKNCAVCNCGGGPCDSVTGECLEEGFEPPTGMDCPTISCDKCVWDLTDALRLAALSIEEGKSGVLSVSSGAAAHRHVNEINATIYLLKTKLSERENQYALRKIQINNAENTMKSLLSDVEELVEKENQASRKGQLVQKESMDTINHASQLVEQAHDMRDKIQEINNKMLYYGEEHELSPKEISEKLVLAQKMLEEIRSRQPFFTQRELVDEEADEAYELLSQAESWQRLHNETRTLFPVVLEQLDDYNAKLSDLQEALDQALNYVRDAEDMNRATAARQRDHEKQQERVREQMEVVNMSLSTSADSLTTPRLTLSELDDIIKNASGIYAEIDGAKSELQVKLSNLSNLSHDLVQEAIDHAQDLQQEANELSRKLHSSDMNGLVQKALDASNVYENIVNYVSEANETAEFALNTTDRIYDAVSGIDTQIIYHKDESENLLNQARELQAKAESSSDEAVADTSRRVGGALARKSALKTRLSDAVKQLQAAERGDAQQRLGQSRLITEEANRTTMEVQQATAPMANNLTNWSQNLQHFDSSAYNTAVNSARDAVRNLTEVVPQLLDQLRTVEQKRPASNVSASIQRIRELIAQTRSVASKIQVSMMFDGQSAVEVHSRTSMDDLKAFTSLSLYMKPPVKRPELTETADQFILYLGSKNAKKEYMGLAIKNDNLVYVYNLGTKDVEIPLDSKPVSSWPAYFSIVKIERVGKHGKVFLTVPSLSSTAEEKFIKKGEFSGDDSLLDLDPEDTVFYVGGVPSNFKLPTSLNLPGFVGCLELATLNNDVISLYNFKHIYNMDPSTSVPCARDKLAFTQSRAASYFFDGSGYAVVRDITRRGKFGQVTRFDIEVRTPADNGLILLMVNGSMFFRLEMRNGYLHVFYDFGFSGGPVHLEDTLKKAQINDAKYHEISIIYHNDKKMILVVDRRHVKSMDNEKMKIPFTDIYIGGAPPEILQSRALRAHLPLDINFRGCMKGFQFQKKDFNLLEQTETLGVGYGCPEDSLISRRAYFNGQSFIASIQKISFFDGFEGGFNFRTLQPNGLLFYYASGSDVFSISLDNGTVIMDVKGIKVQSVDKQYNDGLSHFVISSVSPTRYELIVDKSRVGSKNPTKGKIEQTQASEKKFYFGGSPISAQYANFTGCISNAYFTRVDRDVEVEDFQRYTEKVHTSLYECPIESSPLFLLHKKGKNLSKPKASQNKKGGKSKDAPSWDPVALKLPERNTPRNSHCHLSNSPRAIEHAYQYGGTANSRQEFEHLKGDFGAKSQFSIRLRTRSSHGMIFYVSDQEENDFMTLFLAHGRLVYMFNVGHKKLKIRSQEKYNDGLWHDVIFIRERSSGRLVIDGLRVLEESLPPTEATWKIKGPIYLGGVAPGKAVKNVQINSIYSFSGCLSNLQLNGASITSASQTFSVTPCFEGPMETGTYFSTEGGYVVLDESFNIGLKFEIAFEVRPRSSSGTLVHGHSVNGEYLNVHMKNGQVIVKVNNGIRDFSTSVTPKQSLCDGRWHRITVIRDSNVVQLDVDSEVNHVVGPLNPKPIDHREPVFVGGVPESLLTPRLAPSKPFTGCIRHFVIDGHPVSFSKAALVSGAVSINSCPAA
T4 sequence (P07942 22-1786 limits assumed, chain 2 of 3): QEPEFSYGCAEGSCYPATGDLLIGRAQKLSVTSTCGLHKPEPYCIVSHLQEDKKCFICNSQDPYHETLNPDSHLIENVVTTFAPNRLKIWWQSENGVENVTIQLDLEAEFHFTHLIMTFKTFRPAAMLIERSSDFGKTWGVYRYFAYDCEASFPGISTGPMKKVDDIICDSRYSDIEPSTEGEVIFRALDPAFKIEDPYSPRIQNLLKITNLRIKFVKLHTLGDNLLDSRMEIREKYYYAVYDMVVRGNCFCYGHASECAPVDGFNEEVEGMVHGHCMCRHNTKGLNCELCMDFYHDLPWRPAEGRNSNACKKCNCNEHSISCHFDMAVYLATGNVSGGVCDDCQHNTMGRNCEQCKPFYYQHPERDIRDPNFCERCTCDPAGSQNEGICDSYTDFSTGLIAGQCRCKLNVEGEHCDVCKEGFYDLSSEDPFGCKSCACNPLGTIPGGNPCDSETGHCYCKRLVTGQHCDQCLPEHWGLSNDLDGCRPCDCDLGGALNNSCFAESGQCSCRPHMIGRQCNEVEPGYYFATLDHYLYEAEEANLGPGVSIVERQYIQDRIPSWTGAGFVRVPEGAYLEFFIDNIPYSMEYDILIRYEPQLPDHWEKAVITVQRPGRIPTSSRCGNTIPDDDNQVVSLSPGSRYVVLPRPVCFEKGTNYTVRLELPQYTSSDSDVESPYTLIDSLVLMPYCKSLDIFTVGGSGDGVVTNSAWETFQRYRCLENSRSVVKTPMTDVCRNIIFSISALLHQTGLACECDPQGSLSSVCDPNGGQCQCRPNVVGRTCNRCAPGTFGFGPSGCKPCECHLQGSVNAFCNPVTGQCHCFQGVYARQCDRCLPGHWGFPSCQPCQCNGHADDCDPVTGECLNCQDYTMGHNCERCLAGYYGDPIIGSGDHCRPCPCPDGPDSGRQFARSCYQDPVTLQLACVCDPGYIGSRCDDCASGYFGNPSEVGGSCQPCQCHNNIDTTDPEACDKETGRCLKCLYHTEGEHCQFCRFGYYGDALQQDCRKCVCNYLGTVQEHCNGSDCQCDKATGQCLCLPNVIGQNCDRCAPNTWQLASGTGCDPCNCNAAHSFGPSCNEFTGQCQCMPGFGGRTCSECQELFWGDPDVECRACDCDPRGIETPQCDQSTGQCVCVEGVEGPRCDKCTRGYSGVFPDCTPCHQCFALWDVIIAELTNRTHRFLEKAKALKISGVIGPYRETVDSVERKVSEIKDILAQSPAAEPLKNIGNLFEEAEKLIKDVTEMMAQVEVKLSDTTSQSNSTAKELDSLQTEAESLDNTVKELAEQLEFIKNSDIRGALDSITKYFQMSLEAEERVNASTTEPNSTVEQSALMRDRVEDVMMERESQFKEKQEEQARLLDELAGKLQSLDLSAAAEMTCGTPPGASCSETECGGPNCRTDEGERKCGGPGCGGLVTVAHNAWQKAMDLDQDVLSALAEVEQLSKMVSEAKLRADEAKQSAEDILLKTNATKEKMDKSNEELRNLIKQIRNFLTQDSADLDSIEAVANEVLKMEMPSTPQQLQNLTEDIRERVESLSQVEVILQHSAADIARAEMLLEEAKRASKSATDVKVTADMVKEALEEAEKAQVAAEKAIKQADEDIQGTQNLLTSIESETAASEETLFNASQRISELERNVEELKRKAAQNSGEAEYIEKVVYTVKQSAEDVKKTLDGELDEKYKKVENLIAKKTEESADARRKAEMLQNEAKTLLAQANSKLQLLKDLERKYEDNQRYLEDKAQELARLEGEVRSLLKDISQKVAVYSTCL
T4 sequence (P11047 34-1609 limits assumed, chain 3 of 3): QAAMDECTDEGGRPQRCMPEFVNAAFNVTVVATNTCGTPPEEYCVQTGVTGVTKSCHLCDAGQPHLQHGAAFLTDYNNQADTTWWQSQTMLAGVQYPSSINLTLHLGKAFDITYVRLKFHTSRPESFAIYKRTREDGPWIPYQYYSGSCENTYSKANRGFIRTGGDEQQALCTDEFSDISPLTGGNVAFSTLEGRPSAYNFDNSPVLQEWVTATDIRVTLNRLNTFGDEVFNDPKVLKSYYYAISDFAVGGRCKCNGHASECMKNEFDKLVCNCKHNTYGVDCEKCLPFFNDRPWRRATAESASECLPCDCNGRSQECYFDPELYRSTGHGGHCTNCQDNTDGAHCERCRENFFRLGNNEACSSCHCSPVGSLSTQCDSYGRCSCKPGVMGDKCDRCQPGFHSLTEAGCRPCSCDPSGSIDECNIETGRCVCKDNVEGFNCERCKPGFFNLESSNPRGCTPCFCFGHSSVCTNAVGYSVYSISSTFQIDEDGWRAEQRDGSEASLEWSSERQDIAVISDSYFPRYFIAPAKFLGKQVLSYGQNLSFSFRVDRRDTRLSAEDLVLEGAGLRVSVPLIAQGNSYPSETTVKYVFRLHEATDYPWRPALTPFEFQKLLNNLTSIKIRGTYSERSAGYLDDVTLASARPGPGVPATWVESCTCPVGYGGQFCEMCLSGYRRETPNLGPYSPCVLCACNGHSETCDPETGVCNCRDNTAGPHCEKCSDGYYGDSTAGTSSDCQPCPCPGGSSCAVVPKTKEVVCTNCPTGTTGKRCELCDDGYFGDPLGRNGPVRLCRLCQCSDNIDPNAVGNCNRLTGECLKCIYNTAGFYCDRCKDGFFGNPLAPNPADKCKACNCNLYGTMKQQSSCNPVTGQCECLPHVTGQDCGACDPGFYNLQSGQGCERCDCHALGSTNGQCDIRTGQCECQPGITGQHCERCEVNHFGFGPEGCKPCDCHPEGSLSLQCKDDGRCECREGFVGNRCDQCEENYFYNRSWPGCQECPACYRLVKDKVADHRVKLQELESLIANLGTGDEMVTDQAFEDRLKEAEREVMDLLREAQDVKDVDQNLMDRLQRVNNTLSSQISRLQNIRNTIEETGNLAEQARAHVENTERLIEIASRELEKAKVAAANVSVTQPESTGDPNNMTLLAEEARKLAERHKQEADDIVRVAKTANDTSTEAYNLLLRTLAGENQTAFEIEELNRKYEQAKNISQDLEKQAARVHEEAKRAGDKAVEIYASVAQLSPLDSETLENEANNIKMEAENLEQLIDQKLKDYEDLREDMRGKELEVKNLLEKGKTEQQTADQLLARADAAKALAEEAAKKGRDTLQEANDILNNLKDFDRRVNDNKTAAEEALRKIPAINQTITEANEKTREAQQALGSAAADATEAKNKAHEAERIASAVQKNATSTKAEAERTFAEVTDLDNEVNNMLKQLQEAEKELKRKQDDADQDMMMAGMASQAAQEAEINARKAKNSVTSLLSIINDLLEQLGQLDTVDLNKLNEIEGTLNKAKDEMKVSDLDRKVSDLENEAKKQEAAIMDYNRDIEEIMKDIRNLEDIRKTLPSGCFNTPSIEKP
Method: (§1) The 19C12 variants chimeric 19C12, H1+chiL, and H2+chiL, and buffer alone were tested for their ability to block the binding of LAMA4 to its ligand MCAM (as shown in FIG. 11) and to bind LAMA4-displaying cells (full length, LG1-3, LG4-5, or untransfected control) (as shown in FIG. 12). […] To test LAMA4 binding capacity, serially diluted antibodies were pre-incubated with LAMA4-displaying human 293 cells, followed by anti-human-650 secondary antibody incubation. Fluorescent signal was assessed via flow cytometric analyses and plotted as mean fluorescence intensity (MFI).
Following two washes with FACS buffer (1% FBS in PBS), cells were resuspended with 650-conjugated anti-pan-laminin antibody (1:1000; Novus Biologicals) and incubated for 20 min at 4° C., and washed again. Cells were analyzed for pan-laminin reactivity by flow cytometry using standard procedures.

[3] = target: T2, human LAMA4 LG1-3 modules displayed on …; test: flow cytometry on 293 cells displaying LAMA4 G-domain variants, anti-human-650 secondary antibody; MFI
Method: as §1

[4] = target: T3, human LAMA4 G domain (LG1-5) displayed …; test: as above
Method: as §1

[5] = target: B1; test: as above
Method: as §1

[6] = target: T3, human LAMA4 G domain (LG1-5) displayed …; test: flow cytometry on LAMA4-displaying 293 cells, anti-human-650 secondary antibody; MFI (binding experiment by paragraph 395 and by the plot; the legend paragraph 38 calls it blocking)
Method: (§2) Position L49 of the 19C12 variable light chain was substituted with other amino acids, such as I, T, A, M, Q, or E (see Table 6) because they may confer improved stability relative to substitution to a cysteine. The 19C12 cysteine replacement variants were tested for their ability to bind LAMA4-displaying cells (FIG. 13) and to block the binding of LAMA4 to its ligand MCAM (FIG. 14). To test LAMA4 binding capacity, serially diluted antibodies were pre-incubated with LAMA4-displaying human 293 cells, followed by anti-human-650 secondary antibody incubation. […] Fluorescent signal was assessed via flow cytometric analyses and plotted as mean fluorescence intensity (MFI). The 19C12 cysteine replacement variants retain their MCAM blocking and LAMA4 binding activity to varying degrees.

recombinant laminin 411 [7] = target: T4, recombinant laminin 411; test: flow cytometric blocking assay; antibody pre-incubated with 650-labeled laminin 411; blocked partner: human MCAM on CHO cells; MFI (blocking experiment by paragraph 395 and by the 411 / no 411 controls on the sheet; the legend paragraph 39 calls it binding)
Method: as §2

Row | binding result (recombinant laminin 411 [2]) | binding result [3] | binding result [4] | binding result [5] | binding result [6] | Binder | also measured
1 | – | – | – | – | – | B1 | binding result [1]: no binding
2 | binds | binds | binds | no binding (tested: 5 ug/ml) | – | B2 | –
3 | – | – | – | – | binds | B3 | –
4 | binds | binds | binds | no binding (tested: 5 ug/ml) | – | B4 | –
5 | – | – | – | – | binds | B5 | binding result (recombinant laminin 411 [7]): binds
